In the test the target is HLA-A*02:01. Put plainly: IEDB peptide-MHC binding, purified MHC/competitive/radioactivity; ≥ and ≤ were set here for values at or beyond the usual limits of such assays. As to conditions: source organism: Vaccinia virus WR.

Usually IC50 stands for the point on the concentration scale where inhibition reaches its midpoint. IIITCCLLSV: the 50% inhibitory concentration (IC50) was found to be 6.3 nM.

Regarding IILAISALL, the IC50 amounted to 12 nM.

Consider IILLFDFSI, for which the IC50 is 162 nM.

Take IILVIIVVI: the concentration for half-maximal inhibition (IC50) came to 418 nM.

On to IITNAGTCTV, for which the IC50 was found to be 454 nM.

In the case of IIVALTIMGV, the IC50 was 216 nM.

In the case of ILAIIFLVL, the half-maximal inhibitory concentration (IC50) was found to be 131 nM.

As to ILASIIDYV, the IC50 was 0.61 nM.

Turning to ILDDNLYKV, the IC50 stood at 1.3 nM.

Consider ILFNLSKFLL, for which the concentration for half-maximal inhibition (IC50) worked out at 4 nM.

For ILGILYLYET, the concentration for half-maximal inhibition (IC50) was determined as 73 nM.

ILGMLFSDRV: the half-maximal inhibitory concentration (IC50) worked out at 17 nM.

For ILLFVIVIYI, the IC50 is 7.8 nM.

In the case of ILLLIGICVA, the IC50 is 683 nM.

On to ILLTLRMTQL, for which the 50% inhibitory concentration (IC50) is 366 nM.

For the sequence ILMDNKGLGV, the half-maximal inhibitory concentration (IC50) was 1.3 nM.

For ILMDSIFVST, the IC50 came to 45 nM.

With ILMIFISSFL, the half-maximal inhibitory concentration (IC50) is 22 nM.

In the case of ILMYPTTLL, the half-inhibitory concentration (IC50) was found to be 7 nM.

Take ILPCPQINTL: the half-maximal inhibitory concentration (IC50) amounted to 1380 nM.

Turning to ILPVIFLSI, the concentration for half-maximal inhibition (IC50) was 0.66 nM.

On to ILQISQCQRI, for which the 50% inhibitory concentration (IC50) came to 2600 nM.

Regarding ILQYDLWNV, the half-inhibitory concentration (IC50) turned out to be 0.17 nM.

ILRKIFYSV: the concentration for half-maximal inhibition (IC50) is 126 nM.

Regarding ILSAVAIFCI, the IC50 is 13 nM.

Turning to ILSDDMLNI, the IC50 came to 7.6 nM.

As to ILSLFLISLV, the IC50 amounted to 2.9 nM.

As to ILSNYVKTL, the half-inhibitory concentration (IC50) worked out at 313 nM.

Regarding ILSNYVKTLL, the IC50 came to 7.5 nM.

As for ILSPPINAPI, the concentration for half-maximal inhibition (IC50) is 38 nM.

Turning to ILTAILFFM, the IC50 is 35 nM.

As to ILTLDIFYL, the IC50 amounted to 1.3 nM.

On to ILTREMGFL, for which the half-inhibitory concentration (IC50) is 2280 nM.

As for ILTREMGFLV, the IC50 came to 7 nM.

As for ILVCYILYI, the concentration for half-maximal inhibition (IC50) was found to be 19 nM.

As for ILWFFNAMVL, the half-maximal inhibitory concentration (IC50) was 11 nM.

On to ILYAAFLWL, for which the IC50 turned out to be 112 nM.

ILYDNVVTL: the IC50 was found to be 0.51 nM.

ILYLYETYHL: the IC50 was determined as 9 nM.

With ILYMVVDGSV, the IC50 turned out to be 107 nM.

Regarding IMEYHLLFA, the IC50 was found to be 13 nM.

IMFKDDNII: the IC50 is 235 nM.

In the case of IMFKDDNIIM, the IC50 amounted to 141 nM.

For the sequence IMFTCMDPL, the concentration for half-maximal inhibition (IC50) amounted to 2.1 nM.

Take IMLEGETKL: the IC50 was 6.7 nM.

Consider IMLNGIMYRL, for which the half-inhibitory concentration (IC50) came out at 14 nM.

IMVTDTINT: the 50% inhibitory concentration (IC50) worked out at 2360 nM.

For the sequence IMYTYFSNT, the IC50 came to 57 nM.

In the case of IMYTYFSNTI, the concentration for half-maximal inhibition (IC50) worked out at 99 nM.

For IQAKTKNFTI, the half-maximal inhibitory concentration (IC50) is 4230 nM.

In the case of IQESFIRFTV, the IC50 came to 17 nM.

For ITLSLSKQDI, the IC50 worked out at 211 nM.

As to ITLTNVVNI, the IC50 was found to be 927 nM.

Regarding ITLYDFDYYI, the IC50 was 29 nM.

Consider ITNGYLISI, for which the 50% inhibitory concentration (IC50) was found to be 54 nM.

For the sequence IVALTIMGV, the IC50 is 27 nM.

In the case of IVEVPEDGI, the concentration for half-maximal inhibition (IC50) is 2450 nM.

As to IVFNLPVSKV, the IC50 amounted to 53 nM.

On to IVFVFILTA, for which the IC50 was determined as 294 nM.

As for IVIEAIHTV, the concentration for half-maximal inhibition (IC50) turned out to be 1410 nM.

On to IVIGVIILA, for which the IC50 is 664 nM.

Consider IVISPMGKL, for which the 50% inhibitory concentration (IC50) was 896 nM.

For IVLFILKIFV, the half-maximal inhibitory concentration (IC50) was 271 nM.

IVLSNTSTAV: the IC50 stood at 725 nM.

Take IVLYNGVNYL: the 50% inhibitory concentration (IC50) was 225 nM.

Take IVMDNDDNI: the IC50 was determined as 445 nM.

IVMDNDDNIL: the IC50 came to 883 nM.

Take IVSKLTFLDV: the half-maximal inhibitory concentration (IC50) was determined as 85 nM.

On to IVSVSESNI, for which the 50% inhibitory concentration (IC50) amounted to 2350 nM.

For IVVELEPSL, the IC50 was found to be 2110 nM.

For the sequence IVWEKKSLV, the 50% inhibitory concentration (IC50) was 2.1 nM.

As to IVYCLNALV, the IC50 was 102 nM.

On to KANCTAESST, for which the IC50 amounted to 2760 nM.

For KIADDRIVV, the IC50 was found to be 6.6 nM.

For the sequence KIDKLRQIV, the concentration for half-maximal inhibition (IC50) was determined as 1560 nM.

On to KIFETIYYGA, for which the IC50 was 604 nM.

For KIFIDNIYIV, the 50% inhibitory concentration (IC50) is 522 nM.

For the sequence KIFYKHIHKI, the IC50 came out at 539 nM.

Turning to KIIETYLGRV, the IC50 was 30 nM.

Turning to KIIKKMEDMV, the concentration for half-maximal inhibition (IC50) worked out at 2670 nM.

Take KILAIIFLVL: the half-maximal inhibitory concentration (IC50) was 383 nM.

With KILSASNRL, the IC50 was 766 nM.

Consider KINPTLDNI, for which the IC50 is 244 nM.

As for KISLDISQL, the 50% inhibitory concentration (IC50) worked out at 2280 nM.

Consider KLDYWSFQL, for which the IC50 was found to be 2.1 nM.

For the sequence KLFFAKCLV, the IC50 was determined as 23 nM.

On to KLFFAKCLVV, for which the half-inhibitory concentration (IC50) worked out at 2.3 nM.

In the case of KLFLIKKMA, the IC50 worked out at 1070 nM.

For the sequence KLFTDNNFL, the IC50 is 2 nM.

Regarding KLFYVYYNL, the IC50 was 0.49 nM.

As to KLGNLLLLI, the IC50 was found to be 0.43 nM.

Regarding KLHLISLLSL, the IC50 came to 97 nM.

As to KLIGITAIM, the half-maximal inhibitory concentration (IC50) worked out at 20 nM.

As for KLITFLFVI, the 50% inhibitory concentration (IC50) worked out at 15 nM.

As for KLITSAFDLL, the IC50 was 457 nM.

With KLLISKGIEI, the 50% inhibitory concentration (IC50) was 132 nM.

For KLLKMVTSV, the IC50 stood at 1.2 nM.

These data come from the Immune Epitope Database (IEDB).
